For this series, the system named is Escherichia coli TOP10. Nature of the series: shrunken log2 fold change of peptide-encoding DNA abundance (4.5 h post-induction vs induction); higher = less antimicrobial activity (less host growth inhibition). The following applies: time post-induction: 4.5 h; library: site-saturation at positions 5, 18, 19, 20.

This is an account of results in the supplement of paper PMC9112550, “Optimization of the antimicrobial peptide Bac7 by deep mutational scanning” (BMC Biology, 2022).
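Further: peptides expressed intracellularly from a pBAD plasmid library in pooled LB shake-flask culture, induced with 0.3% L-arabinose, DNA abundance read by NGS, three biological replicates, DESeq2 with apeglm shrinkage.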

In the case of RRIRCRPPRLPRPRPRPKFGPRP, the “shrunken log2 fold change” value stood at 0.231. Under RRIRNRPPRLPRPRPRPVAFPRP stands -0.119; under RRIRWRPPRLPRPRPRPIVLPRP, -0.628; under RRIRARPPRLPRPRPRPGMWPRP, 0.485.

In the case of RRIRFRPPRLPRPRPRPYCTPRP, the “shrunken log2 fold change” value is -0.873. Under RRIRYRPPRLPRPRPRPLSSPRP stands -0.214.

In the case of RRIRGRPPRLPRPRPRPYECPRP, the “shrunken log2 fold change” value was -0.075. The figure for RRIRNRPPRLPRPRPRPTCRPRP is 0.142.

RRIRMRPPRLPRPRPRPVCLPRP: the “shrunken log2 fold change” value is 0.174. For the sequence RRIRPRPPRLPRPRPRPYPGPRP, the “shrunken log2 fold change” value is -0.159. The figure for RRIRIRPPRLPRPRPRPWVMPRP is -0.152; for RRIRLRPPRLPRPRPRPMLCPRP it is -0.0499; for RRIRPRPPRLPRPRPRPNHPPRP it is -0.404. Under RRIRERPPRLPRPRPRPQHEPRP stands 0.199; under RRIRKRPPRLPRPRPRPYEVPRP, -0.205. As to RRIRFRPPRLPRPRPRPWGYPRP, the “shrunken log2 fold change” value is -0.164. Under RRIRARPPRLPRPRPRPPCYPRP stands 0.146. The figure for RRIRGRPPRLPRPRPRPDEWPRP is 0.757. The figure for RRIRRRPPRLPRPRPRPHIFPRP is -0.019; for RRIRWRPPRLPRPRPRPTEEPRP it is 0.12. RRIRMRPPRLPRPRPRPQWWPRP: the “shrunken log2 fold change” value came to 0.245. The figure for RRIRARPPRLPRPRPRPAMYPRP is 0.0624; for RRIRTRPPRLPRPRPRPNGYPRP it is -0.12; for RRIRQRPPRLPRPRPRPSKWPRP it is -0.351. As for RRIRCRPPRLPRPRPRPPSGPRP, the “shrunken log2 fold change” value stood at 0.233.

RRIRMRPPRLPRPRPRPFNAPRP: the “shrunken log2 fold change” value was determined as 0.00535.

On to RRIRFRPPRLPRPRPRPWFVPRP, for which the “shrunken log2 fold change” value was -0.283.

Turning to RRIRIRPPRLPRPRPRPWCMPRP, the “shrunken log2 fold change” value was -0.693. The figure for RRIRFRPPRLPRPRPRPNTFPRP is -0.559. On to RRIRPRPPRLPRPRPRPQKQPRP, for which the “shrunken log2 fold change” value is -0.294. The figure for RRIRKRPPRLPRPRPRPHWAPRP is 0.118.

For the sequence RRIRFRPPRLPRPRPRPGVEPRP, the “shrunken log2 fold change” value was 0.112.

As for RRIRQRPPRLPRPRPRPMTLPRP, the “shrunken log2 fold change” value was 0.106. Under RRIRLRPPRLPRPRPRPSAHPRP stands 0.0318; under RRIRDRPPRLPRPRPRPQPVPRP, 0.28; under RRIRLRPPRLPRPRPRPWHCPRP, -0.0686.

RRIRYRPPRLPRPRPRPDRNPRP: the “shrunken log2 fold change” value is -0.018. For RRIRVRPPRLPRPRPRPLAQPRP, the “shrunken log2 fold change” value was determined as 0.187.

Consider RRIRKRPPRLPRPRPRPTLTPRP, for which the “shrunken log2 fold change” value is 0.283. RRIRMRPPRLPRPRPRPFGVPRP: the “shrunken log2 fold change” value worked out at 0.0231. The figure for RRIRCRPPRLPRPRPRPAKRPRP is 0.0702. Under RRIRHRPPRLPRPRPRPYFKPRP stands -1.03; under RRIRERPPRLPRPRPRPIKPPRP, -0.363.

In the case of RRIRIRPPRLPRPRPRPPTFPRP, the “shrunken log2 fold change” value is -0.166. As to RRIRPRPPRLPRPRPRPMKIPRP, the “shrunken log2 fold change” value is 0.0483. The figure for RRIRWRPPRLPRPRPRPMAGPRP is 0.0179. The figure for RRIRHRPPRLPRPRPRPGYLPRP is -0.243; for RRIRMRPPRLPRPRPRPERSPRP it is 3.22; for RRIRKRPPRLPRPRPRPTYHPRP it is -0.283. The figure for RRIRRRPPRLPRPRPRPHDVPRP is 0.0619. For RRIRQRPPRLPRPRPRPDYVPRP, the “shrunken log2 fold change” value is 0.07. The figure for RRIRFRPPRLPRPRPRPQKIPRP is -0.299; for RRIRVRPPRLPRPRPRPYREPRP it is -0.3; for RRIRMRPPRLPRPRPRPHKNPRP it is 0.195.

With RRIRQRPPRLPRPRPRPPMWPRP, the “shrunken log2 fold change” value came to 0.336. The figure for RRIRDRPPRLPRPRPRPHKTPRP is -0.0521; for RRIRQRPPRLPRPRPRPEWSPRP it is 0.0925; for RRIRKRPPRLPRPRPRPPTKPRP it is 0.12. Under RRIRDRPPRLPRPRPRPSKFPRP stands -0.105; under RRIRPRPPRLPRPRPRPTQNPRP, 0.534; under RRIRPRPPRLPRPRPRPLRHPRP, 0.21.

For the sequence RRIRSRPPRLPRPRPRPGGIPRP, the “shrunken log2 fold change” value is 0.274.
